Assay in all cases: cell-based or functional assay
One assay deals with T1, rat ANP receptor (NPR-A) (rat, UniProt P18910 29-1057).
T1 sequence (looked up): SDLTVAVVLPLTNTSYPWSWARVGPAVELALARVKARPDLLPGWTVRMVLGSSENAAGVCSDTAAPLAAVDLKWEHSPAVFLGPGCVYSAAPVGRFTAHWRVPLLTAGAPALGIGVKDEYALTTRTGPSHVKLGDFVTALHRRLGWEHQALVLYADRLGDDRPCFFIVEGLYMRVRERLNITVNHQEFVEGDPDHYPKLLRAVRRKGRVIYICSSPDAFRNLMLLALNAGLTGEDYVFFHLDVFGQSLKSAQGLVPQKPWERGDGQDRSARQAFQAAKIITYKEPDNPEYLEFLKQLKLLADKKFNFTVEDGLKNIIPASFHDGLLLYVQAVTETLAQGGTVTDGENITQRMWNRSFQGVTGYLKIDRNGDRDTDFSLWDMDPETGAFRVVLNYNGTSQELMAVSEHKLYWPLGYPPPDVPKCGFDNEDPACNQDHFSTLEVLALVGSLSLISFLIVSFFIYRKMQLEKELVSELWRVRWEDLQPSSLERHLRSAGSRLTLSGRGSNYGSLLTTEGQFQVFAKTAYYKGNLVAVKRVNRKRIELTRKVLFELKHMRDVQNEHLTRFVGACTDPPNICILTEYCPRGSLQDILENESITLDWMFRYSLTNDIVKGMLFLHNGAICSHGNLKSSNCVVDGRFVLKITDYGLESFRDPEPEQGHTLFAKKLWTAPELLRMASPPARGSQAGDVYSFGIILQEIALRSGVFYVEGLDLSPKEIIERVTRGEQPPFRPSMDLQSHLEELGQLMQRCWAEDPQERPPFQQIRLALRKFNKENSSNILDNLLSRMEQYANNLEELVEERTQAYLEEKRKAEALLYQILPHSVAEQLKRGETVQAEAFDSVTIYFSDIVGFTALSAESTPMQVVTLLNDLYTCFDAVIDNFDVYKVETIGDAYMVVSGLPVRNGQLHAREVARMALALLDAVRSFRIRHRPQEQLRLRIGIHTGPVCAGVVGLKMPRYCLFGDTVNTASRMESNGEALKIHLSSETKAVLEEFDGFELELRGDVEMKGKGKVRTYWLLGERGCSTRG

The next assay deals with T2, human NPRA (hNPRA) (human, UniProt P16066 33-1061).
T2 sequence (looked up): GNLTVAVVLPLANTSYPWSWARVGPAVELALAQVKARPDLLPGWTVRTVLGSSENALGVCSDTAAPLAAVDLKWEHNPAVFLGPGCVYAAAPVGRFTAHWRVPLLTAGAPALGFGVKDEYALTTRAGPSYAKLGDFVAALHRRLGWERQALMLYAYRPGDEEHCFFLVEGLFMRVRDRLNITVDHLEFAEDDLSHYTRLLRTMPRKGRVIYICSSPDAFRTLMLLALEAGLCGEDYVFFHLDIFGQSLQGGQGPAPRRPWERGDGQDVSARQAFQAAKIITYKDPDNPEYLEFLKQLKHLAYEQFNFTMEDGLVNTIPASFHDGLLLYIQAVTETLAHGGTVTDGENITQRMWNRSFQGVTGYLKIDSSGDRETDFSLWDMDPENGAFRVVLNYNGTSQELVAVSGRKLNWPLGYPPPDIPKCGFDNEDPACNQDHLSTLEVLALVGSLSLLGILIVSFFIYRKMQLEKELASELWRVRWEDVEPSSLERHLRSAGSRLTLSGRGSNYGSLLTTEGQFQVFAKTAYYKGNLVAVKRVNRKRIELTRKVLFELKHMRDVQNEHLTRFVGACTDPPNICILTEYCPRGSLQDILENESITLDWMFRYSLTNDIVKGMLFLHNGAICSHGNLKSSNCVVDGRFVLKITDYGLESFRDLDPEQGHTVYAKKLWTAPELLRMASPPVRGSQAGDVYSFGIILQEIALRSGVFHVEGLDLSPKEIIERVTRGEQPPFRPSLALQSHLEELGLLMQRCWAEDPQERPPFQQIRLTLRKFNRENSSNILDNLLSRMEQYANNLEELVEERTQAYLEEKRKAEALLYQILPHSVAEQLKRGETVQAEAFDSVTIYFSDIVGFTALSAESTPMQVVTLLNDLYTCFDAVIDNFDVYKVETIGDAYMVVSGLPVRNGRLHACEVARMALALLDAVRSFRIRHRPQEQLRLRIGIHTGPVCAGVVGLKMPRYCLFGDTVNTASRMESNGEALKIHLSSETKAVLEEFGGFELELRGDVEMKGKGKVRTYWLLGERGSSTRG

In another assay the target is T3, rat CNP receptor (NPR-B) (rat, UniProt P16067 17-1047).
T3 sequence (looked up): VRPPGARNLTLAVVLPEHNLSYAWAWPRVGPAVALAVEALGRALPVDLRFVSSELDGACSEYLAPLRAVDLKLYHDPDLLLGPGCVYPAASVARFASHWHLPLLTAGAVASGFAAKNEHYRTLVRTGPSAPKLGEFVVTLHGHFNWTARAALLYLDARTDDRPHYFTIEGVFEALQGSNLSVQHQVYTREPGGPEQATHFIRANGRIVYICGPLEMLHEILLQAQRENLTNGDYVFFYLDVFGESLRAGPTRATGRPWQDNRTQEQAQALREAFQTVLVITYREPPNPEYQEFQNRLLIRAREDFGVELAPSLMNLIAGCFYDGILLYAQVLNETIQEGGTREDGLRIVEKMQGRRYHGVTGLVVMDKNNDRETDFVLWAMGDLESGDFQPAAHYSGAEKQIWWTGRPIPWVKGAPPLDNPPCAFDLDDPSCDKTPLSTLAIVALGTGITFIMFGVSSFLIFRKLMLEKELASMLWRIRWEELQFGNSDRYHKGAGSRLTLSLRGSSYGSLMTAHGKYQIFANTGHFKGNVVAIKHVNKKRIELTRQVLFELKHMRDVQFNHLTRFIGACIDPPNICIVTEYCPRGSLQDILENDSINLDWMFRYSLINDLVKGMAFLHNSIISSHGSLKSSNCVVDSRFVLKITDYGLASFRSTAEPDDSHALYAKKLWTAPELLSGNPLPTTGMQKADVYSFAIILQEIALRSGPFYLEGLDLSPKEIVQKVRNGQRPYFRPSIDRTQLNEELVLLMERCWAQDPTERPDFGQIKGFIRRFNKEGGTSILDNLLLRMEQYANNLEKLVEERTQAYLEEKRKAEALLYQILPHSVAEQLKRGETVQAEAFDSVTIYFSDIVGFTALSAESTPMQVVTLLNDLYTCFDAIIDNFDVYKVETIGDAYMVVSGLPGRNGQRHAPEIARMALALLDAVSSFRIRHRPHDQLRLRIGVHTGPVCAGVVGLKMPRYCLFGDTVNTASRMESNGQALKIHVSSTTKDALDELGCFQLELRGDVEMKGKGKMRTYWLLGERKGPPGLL

In a further assay the target is T4, human NPRA (human, UniProt P16066 33-1061).
T4 sequence (looked up): T2 sequence (looked up)

From patent US20210147504A1 (Bayer, published 2021) come the findings set out here.

Residue numbers refer to the chain shown, from its start. Where only a bound is given, the exact number is not on record here.

B1: TPP-11156 (antibody, human IgG1, lambda)
heavy: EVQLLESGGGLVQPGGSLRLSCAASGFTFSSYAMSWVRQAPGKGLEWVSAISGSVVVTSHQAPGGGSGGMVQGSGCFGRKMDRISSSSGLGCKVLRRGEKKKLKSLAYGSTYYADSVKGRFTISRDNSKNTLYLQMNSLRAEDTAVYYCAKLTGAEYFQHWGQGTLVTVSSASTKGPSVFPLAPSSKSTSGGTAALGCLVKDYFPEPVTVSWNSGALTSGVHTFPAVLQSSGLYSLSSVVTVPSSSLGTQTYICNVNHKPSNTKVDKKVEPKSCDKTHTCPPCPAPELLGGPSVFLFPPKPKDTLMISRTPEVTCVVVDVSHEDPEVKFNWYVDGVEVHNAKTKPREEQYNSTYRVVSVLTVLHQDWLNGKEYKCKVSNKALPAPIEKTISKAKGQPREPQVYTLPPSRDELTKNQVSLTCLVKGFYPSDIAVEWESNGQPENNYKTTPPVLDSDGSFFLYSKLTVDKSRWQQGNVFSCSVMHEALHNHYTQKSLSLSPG
light: QSVLTQPPSVSGAPGQRVTISCTGSSSNIGAGYDVHWYQQLPGTAPKLLIYGNSNRPSGVPDRFSGSKSGTSASLAITGLQAEDEADYYCQSYDSSLSGVVFGGGTKLTVLGQPKAAPSVTLFPPSSEELQANKATLVCLISDFYPGAVTVAWKADSSPVKAGVETTTPSKQSNNKYAASSYLSLTPEQWKSHRSYSCQVTHEGSTVEKTVAPTECS
As for B1, in the assay with rat ANP receptor (NPR-A), the “EC50, fluorescence signal of rat NPR-A cGMP reporter CHO cell line (GCaMP6/CNGA2)” value (from here on “EC50, fluorescence signal … (GCaMP6/CNGA2)”) amounted to 1200 nM and the “EC50 on rNPRA reporter cells” value is more than 1000 nM.

B2: TPP-5661 (antibody)
heavy: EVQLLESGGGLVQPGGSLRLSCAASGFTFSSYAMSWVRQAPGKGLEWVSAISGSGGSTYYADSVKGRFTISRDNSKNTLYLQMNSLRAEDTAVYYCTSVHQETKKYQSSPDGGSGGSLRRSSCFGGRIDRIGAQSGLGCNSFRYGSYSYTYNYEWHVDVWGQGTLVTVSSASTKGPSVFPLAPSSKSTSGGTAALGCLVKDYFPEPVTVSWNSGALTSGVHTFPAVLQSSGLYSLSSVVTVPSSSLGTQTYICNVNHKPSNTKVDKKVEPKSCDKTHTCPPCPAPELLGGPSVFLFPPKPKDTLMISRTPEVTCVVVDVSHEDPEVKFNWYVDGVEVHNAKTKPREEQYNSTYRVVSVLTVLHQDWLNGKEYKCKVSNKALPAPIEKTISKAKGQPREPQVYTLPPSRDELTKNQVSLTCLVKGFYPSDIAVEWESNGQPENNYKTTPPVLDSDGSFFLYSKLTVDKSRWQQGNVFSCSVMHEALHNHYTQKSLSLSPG
light: B1 light
As for B2, in the assay with human NPRA (hNPRA), the “log EC50, cGMP quantification assay, isolated compound sample (ics) on stable hNPRA-CHO k1 cells” value is -8.8 log EC50; the “log EC50, cGMP quantification assay, purified compound sample (pcs) on stable hNPRA-CHO k1 cells” value was -9.2 log EC50; the “log EC50, cGMP quantification assay, purified compound sample (pcs) on transient hNPRA-HEK293 cells” value is -9 log EC50. Also, the “EC50, fluorescence signal … (GCaMP6/CNGA2)” value with rat ANP receptor (NPR-A) worked out at 17 nM.

B3: TPP-9902 (antibody)
heavy: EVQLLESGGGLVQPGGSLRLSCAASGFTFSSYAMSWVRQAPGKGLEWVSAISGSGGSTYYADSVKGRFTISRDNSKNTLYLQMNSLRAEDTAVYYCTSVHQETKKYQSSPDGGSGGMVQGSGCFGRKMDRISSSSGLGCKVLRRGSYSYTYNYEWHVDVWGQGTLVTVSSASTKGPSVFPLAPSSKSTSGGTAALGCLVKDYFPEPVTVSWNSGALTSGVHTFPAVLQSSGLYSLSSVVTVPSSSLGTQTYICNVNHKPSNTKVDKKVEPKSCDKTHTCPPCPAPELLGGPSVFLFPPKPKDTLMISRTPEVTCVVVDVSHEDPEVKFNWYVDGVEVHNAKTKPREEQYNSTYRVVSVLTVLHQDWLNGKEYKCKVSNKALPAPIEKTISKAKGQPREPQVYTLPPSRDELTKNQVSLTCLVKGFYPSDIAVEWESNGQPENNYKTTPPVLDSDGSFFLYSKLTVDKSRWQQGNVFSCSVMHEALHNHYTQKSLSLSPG
light: B1 light
With B3, in the assay with rat ANP receptor (NPR-A), the “EC50, fluorescence signal … (GCaMP6/CNGA2)” value was determined as 2300 nM and the “EC50 on rNPRA reporter cells” value is more than 1000 nM.

B4: TPP-9465 (antibody)
heavy: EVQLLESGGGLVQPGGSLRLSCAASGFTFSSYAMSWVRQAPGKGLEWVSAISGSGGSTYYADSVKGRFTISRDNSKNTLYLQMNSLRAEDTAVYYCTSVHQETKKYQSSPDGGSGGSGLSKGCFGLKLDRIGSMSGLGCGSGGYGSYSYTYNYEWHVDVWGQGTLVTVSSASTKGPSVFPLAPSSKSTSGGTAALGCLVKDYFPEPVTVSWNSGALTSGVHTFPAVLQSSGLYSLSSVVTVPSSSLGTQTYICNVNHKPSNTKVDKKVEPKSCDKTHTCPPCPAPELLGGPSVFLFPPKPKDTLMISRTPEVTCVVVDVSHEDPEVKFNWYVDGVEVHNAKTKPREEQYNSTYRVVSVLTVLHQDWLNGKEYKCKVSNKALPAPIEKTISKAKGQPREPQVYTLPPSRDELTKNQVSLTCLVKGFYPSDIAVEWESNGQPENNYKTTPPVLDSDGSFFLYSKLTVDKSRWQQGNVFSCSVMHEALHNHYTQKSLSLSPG
light: B1 light
As to B4, the “EC50, luminescence signal of rat NPR-B cGMP reporter cell line” value (“EC50, luminescence signal” for short) with rat CNP receptor (NPR-B) is 5.2 nM.

B5: TPP-10992 (antibody, human IgG4 S228P, lambda)
heavy: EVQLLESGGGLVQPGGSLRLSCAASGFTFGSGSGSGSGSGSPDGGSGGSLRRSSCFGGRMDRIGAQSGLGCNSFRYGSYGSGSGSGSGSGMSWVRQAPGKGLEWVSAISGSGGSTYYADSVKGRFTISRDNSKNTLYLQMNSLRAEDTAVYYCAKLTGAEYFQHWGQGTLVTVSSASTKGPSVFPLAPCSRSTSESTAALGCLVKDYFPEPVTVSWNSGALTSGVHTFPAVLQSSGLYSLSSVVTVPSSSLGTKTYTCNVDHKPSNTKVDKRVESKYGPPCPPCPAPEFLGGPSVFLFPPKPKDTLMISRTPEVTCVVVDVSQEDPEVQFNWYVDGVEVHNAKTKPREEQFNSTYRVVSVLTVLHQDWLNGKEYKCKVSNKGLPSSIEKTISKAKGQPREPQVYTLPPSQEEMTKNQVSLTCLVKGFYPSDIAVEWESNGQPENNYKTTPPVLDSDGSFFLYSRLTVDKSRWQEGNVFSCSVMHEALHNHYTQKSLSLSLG
light: B1 light
Take B5: the “EC50, fluorescence signal … (GCaMP6/CNGA2)” value in the assay with rat ANP receptor (NPR-A) was determined as 180 nM.

B6: TPP-12377 (antibody)
heavy: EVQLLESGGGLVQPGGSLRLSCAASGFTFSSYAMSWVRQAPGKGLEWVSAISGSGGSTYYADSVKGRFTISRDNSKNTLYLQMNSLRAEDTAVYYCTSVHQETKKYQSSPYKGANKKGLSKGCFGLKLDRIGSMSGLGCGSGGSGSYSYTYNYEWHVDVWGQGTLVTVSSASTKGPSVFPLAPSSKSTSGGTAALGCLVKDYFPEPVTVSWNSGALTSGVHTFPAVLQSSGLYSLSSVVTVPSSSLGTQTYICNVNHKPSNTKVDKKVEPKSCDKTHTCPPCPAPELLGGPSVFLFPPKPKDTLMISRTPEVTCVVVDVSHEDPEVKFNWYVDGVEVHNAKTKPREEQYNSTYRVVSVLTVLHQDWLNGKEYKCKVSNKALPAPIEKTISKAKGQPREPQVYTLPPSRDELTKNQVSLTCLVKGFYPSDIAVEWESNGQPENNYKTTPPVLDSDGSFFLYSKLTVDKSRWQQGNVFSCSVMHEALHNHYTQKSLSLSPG
light: B1 light
As to B6, the “EC50, luminescence signal” value with rat CNP receptor (NPR-B) stood at 4.1 nM.

B7: TPP-12897 (antibody)
heavy: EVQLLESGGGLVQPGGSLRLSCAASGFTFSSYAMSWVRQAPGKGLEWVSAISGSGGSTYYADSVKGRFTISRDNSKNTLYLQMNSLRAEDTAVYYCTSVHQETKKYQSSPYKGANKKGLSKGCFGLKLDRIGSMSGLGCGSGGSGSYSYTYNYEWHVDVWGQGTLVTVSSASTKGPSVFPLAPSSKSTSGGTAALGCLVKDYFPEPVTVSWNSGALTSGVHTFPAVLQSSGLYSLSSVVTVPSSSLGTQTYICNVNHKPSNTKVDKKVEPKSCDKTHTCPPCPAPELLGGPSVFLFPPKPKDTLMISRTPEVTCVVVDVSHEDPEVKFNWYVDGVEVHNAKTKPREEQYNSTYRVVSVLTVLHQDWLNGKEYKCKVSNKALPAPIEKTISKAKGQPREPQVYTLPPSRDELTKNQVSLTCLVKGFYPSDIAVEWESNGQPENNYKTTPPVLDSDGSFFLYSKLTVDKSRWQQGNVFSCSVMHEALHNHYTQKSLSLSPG
light: B1 light with S98D
Regarding B7, in the assay with rat CNP receptor (NPR-B), the “EC50, luminescence signal” value turned out to be 10 nM.

B8: TPP-10355 (antibody, human IgG1, lambda)
heavy: not shown
light: QSVLTQPPSVSGAPGQRVTISCTGSSSNIGAGYDVHWYQQLPGTAPKLLIYGNSNRPSGVPDRFSGSKSGTSASLAITGLQAEDEADYYCAAWNPNPNPNPNPNGGSGGSLRRSSCFGGRMDRIGAQSGLGCNSFRYGSNPNPNPNPNPNVFGSGTKVTVLGQPKAAPSVTLFPPSSEELQANKATLVCLISDFYPGAVTVAWKADSSPVKAGVETTTPSKQSNNKYAASSYLSLTPEQWKSHRSYSCQVTHEGSTVEKTVAPTECS
With B8, in the assay with human NPRA, the activity rcs was determined as 94%, the “average rel logEC50” value is -0.2 log vs TPP-5661, the rel. activity rcs worked out at 0.1 log vs TPP-5661 and the “rel. logEC50 pcs 2” value was -0.6 log vs TPP-5661. Also, in the assay with human NPRA, the “rel. logEC50 pcs 3” value was found to be 0.2 log vs TPP-5661 and the “rel. logEC50 pcs 4” value was -0.3 log vs TPP-5661.
